B1: human chemerin C16 peptide (peptide)
peptide: AGEDPHSFYFPGQFAF
B2: mouse chemerin C15 peptide (peptide)
peptide: AGEDPHGYFLPGQFA
B3: human chemerin C17 peptide (peptide)
peptide: AGEDPHSFYFPGQFAFS
B4: human chemerin C15 peptide (peptide)
peptide: AGEDPHSFYFPGQFA

Experiments:
Assay in all cases: cell-based or functional assay
[1] = target: T1, mouse ChemR23, PathHunter β-Arrestin cell line (mouse, UniProt P97468 1-371)
T1 sequence (P97468 whole entry, looked up): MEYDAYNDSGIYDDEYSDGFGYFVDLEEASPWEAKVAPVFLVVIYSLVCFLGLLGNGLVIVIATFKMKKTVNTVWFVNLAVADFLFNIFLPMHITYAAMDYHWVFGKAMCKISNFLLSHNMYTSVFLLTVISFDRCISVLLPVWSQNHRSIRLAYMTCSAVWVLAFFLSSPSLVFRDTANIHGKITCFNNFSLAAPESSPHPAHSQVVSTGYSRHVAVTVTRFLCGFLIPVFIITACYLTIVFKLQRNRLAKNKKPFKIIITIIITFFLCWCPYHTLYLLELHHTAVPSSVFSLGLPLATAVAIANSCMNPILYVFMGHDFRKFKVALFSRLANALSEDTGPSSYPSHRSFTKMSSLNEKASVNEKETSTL

[2] = target: T2, human ChemR23, cAMP Hunter cell line (human, UniProt Q99788 1-373)
T2 sequence (looked up): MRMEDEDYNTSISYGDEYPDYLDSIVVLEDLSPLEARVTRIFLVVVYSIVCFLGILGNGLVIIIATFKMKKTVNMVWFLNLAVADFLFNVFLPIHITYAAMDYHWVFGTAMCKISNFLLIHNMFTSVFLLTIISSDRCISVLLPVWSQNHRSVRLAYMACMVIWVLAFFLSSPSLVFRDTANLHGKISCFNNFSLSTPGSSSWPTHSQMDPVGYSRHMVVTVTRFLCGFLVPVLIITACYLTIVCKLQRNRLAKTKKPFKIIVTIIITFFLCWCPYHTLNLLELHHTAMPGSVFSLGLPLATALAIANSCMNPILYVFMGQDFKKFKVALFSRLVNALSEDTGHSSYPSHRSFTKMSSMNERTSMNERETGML

[3] = target: T3, GPR1, PathHunter β-Arrestin CHO cell line (human, UniProt P46091 1-355)
T3 sequence (P46091 whole entry, species assumed, looked up): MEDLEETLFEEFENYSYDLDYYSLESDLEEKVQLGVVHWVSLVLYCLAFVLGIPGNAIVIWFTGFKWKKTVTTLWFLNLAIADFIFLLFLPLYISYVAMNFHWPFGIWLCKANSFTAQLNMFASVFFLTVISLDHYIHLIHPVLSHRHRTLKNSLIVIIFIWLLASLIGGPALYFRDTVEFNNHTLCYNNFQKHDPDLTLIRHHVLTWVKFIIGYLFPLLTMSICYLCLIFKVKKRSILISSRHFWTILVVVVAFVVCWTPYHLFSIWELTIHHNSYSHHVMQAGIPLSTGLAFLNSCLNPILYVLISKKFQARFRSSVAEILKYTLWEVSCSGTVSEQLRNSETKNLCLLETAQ

[4] = target: human ChemR23 (CMKLR1), PathHunter β-Arrestin CHO cell line (human, UniProt Q99788 1-373)

Binder | EC50, Arrestin, Agonist (RC50, uM) [1] [µM] | IC50, Arrestin, Antagonist (RC50, uM) [1] [µM] | IC50, cAMP, Antagonist (RC50, uM) [2] [µM] | % Max Activity, PathHunter β-Arrestin agonist [3] [%] | % Max Inhibition, PathHunter β-Arrestin antagonist against chemerin at EC80 [3] [%] | [EC50] (M), PathHunter β-Arrestin agonist [3] [M] | [IC50] (M), PathHunter β-Arrestin antagonist against chemerin at EC80 [3] [M] | % Max Activity, PathHunter β-Arrestin agonist [4] [%] | % Max Inhibition, PathHunter β-Arrestin antagonist against chemerin at EC80 [4] [%] | [EC50] (M), PathHunter β-Arrestin agonist [4] [M] | [IC50] (M), PathHunter β-Arrestin antagonist against chemerin at EC80 [4] [M]
B1 | 0.0385 | > 10 | > 10 | 87.9 | 0 | 2.1e-09 | > 1e-05 | 98.6 | 0 | 2.9e-08 | > 1e-05
B2 | > 10 | > 10 | > 10 | 27.8 | 0 | 3.7e-06 | > 1e-05 | 0.4 | 0 | > 1e-05 | > 1e-05
B3 | 0.84 | > 10 | > 10 | 80.9 | 0 | 1.5e-09 | > 1e-05 | 67.5 | 0 | 4.8e-07 | > 1e-05
B4 | > 10 | 9.66 | > 10 | 10.6 | 0 | 0.017 | > 1e-05 | 0.8 | 0 | > 1e-05 | > 1e-05

From US20160136231A1 (ROGNE BIOSCIENCE, published 2016)
